Results taken from paper PMC6547438, “Bacillus subtilis DisA regulates RecA-mediated DNA strand exchange” (Nucleic Acids Research, 2019).

B1: RecA (native, untagged) (enzyme, Bacillus subtilis, UniProt P16971 1-348, looked up)
chain: MSDRQAALDMALKQIEKQFGKGSIMKLGEKTDTRISTVPSGSLALDTALGIGGYPRGRIIEVYGPESSGKTTVALHAIAEVQQQGGQAAFIDAEHALDPVYAQKLGVNIEELLLSQPDTGEQALEIAEALVRSGAVDIVVVDSVAALVPKAEIEGDMGDSHVGLQARLMSQALRKLSGAINKSKTIAIFINQIREKVGVMFGNPETTPGGRALKFYSSVRLEVRRAEQLKQGNDVMGNKTKIKVVKNKVAPPFRTAEVDIMYGEGISKEGEIIDLGTELDIVQKSGSWYSYEEERLGQGRENAKQFLKENKDIMLMIQEQIREHYGLDNNGVVQQQAEETQEELEFEE
notes: Bacillus subtilis recombinase RecA; purified protein of 38.0 kDa; The printed mass of 38.0 kDa fits the whole protein; also called native RecA; apo RecA; source: B. subtilis BG214 bearing pBT61-borne recA, over-expressed and purified
B2: His-tagged DisA (enzyme, Bacillus subtilis, UniProt P37573 1-360, looked up)
chain: MEKEKKGAKHELDLSSILQFVAPGTPLRAGMENVLRANTGGLIVVGYNDKVKEVVDGGFHINTAFSPAHLYELAKMDGAIILSDSGQKILYANTQLMPDATISSSETGMRHRTAERVAKQTGCLVIAISERRNVITLYQENMKYTLKDIGFILTKANQAIQTLEKYKTILDKTINALNALEFEELVTFSDVLSVMHRYEMVLRIKNEINMYIKELGTEGHLIKLQVIELITDMEEEAALFIKDYVKEKIKDPFVLLKELQDMSSYDLLDDSIVYKLLGYPASTNLDDYVLPRGYRLLNKIPRLPMPIVENVVEAFGVLPRIIEASAEELDEVEGIGEVRAQKIKKGLKRLQEKHYLDRQL

Experiments:
His-tagged DisA = molecular target: B2; assay: pull-down; His-tagged DisA and native RecA (1.5 μg each) loaded on a 50-μl Ni2+ microcolumn, room temperature, Buffer A (50 mM Tris-HCl pH 7.5, 50 mM NaCl, 10 mM MgCl2, 5% glycerol) with 20 mM imidazole, without ssDNA and ATP; eluted with 1 M NaCl and 400 mM imidazole; SDS-PAGE, Coomassie and Western blot; conditions: both partners purified
RecA (native, untagged) = molecular target: B1; assay: cell-based or functional assay

Row | Binder | binding result (His-tagged DisA) | RecA-mediated three-strand DNA exchange with SsbA and RecO in ATPγS, fold reduction at a DisA:RecA molar ratio of 1:48 (RecA (native, untagged)) [fold]
1 | B1 | binds | 
2 | B2 |  | ~18
